Assay results reported in patent publication US20220281965A1 (AstraZeneca / MedImmune, published 2022).

T1: mature human GDF-15 (human, UniProt Q99988 197-308)
T1 construct: Homodimer; also called hGDF-15; recombinant hu-GDF15
T1 sequence: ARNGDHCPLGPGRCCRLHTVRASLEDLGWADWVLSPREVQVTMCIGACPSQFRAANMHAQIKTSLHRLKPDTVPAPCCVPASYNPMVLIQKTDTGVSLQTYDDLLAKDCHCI

T2: mouse GDF-15 (mouse, UniProt Q9Z0J7 189-303)
T2 construct: also called mGDF-15
T2 sequence: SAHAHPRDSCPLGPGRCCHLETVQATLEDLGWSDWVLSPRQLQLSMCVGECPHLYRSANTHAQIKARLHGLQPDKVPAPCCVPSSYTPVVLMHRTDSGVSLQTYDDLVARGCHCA

T3: biotinylated cynomolgus GDF-15 (cynomolgus, UniProt G7PWZ3 197-308, biotinylated, sites not stated)
T3 construct: also called Cyno GDF-15
T3 sequence: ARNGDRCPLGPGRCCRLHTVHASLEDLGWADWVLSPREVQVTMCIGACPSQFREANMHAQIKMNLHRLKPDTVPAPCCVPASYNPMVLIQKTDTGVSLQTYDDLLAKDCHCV

T4: mature recombinant cynomolgus GDF-15 with an N-terminal Flag and His tag, biotinylated (cynomolgus, UniProt G7PWZ3 197-308, chemically biotinylated with EZ link Sulfo-NHS-LC-Biotin, sites not stated)
T4 construct: not shown: N-terminal Flag and His tags
T4 sequence: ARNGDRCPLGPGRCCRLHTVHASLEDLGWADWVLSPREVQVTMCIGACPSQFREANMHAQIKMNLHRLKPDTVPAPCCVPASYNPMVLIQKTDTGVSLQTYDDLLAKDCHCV

T5: mature recombinant human GDF-15 H202D variant with an N-terminal Flag and His tag, biotinylated (human, UniProt Q99988 197-308, chemically biotinylated with EZ link Sulfo-NHS-LC-Biotin, sites not stated)
T5 construct: also called Human H202D; not shown: N-terminal Flag and His tags
T5 chain: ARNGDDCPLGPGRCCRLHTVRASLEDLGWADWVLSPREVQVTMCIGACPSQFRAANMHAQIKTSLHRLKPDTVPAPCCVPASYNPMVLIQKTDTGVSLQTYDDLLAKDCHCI

T6: mature recombinant mouse GDF-15 with Flag and His tags (mouse, UniProt Q9Z0J7 189-303)
T6 construct: also called Flag tagged mouse GDF-15; not shown: FLAG and poly-His tags immediately C-terminal to the furin cleavage site (N-terminal on the mature protein)
T6 sequence: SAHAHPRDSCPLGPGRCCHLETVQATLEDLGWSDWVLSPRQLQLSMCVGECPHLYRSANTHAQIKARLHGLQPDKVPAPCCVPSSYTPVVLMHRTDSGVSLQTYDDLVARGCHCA

T7: mature recombinant human GDF-15 with an N-terminal Flag and His tag, biotinylated (human, UniProt Q99988 197-308, chemically biotinylated with EZ link Sulfo-NHS-LC-Biotin, sites not stated)
T7 construct: not shown: N-terminal Flag and His tags
T7 sequence: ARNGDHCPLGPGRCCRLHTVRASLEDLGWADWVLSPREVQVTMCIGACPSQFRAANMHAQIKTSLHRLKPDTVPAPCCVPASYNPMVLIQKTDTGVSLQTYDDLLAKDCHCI

T8: biotinylated human H202D GDF-15 variant (human, UniProt Q99988 197-308, biotinylated, sites not stated)
T8 construct: also called Human GDF-15 H202D
T8 chain: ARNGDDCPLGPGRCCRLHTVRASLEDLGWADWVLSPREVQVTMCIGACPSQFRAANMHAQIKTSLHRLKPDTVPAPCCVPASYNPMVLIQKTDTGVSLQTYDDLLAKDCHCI


Experiments:
mature human GDF-15 = target: T1, mature human GDF-15; assay: HTRF epitope competition; competitor DyLight 650 labelled Antibody A; Europium labelled human GDF-15
From the text: Antibodies from the immunizations with human GDF-15, in the form of crude supernatants from the immunization or in the form of purified IgGs, were chosen on the basis that they bind and compete with an epitope recognized by a control anti-GDF-15 antibody “Antibody A”. A biochemical epitope competition format was applied using an HTRF epitope competition assay that measured the binding of DyLight 650 labelled Antibody A to Europium labelled human GDF-15 (Prospec). In the absence of Antibody A binding, there is no detectable FRET fluorescence. When Antibody A binds to GDF-15, the resulting physical proximity between the secondary reagent donor/acceptor pair results in FRET. Competition with an antibody that recognizes the same or similar epitope will result in a dose dependent reduction of the FRET signal. FRET was measured ratiometrically [665 nm (acceptor)/620 nm (donor)] on an Envision plate reader, and IC₅₀ values were determined by curve fitting the data to a four parameter logistic equation using PRISM 6® software (Graphpad).

mouse GDF-15 = target: T2, mouse GDF-15; assay: HTRF binding assay, biotinylated antigen, titration of antibody
From the text: (§1) Supernatants generated from the immunizations with human GDF-15 and purified IgGs were screened to identify IgGs with specific binding to human, cynomolgus, or mouse GDF-15. The HTRF (Homogeneous Time Resolved Fluorescence) assay is based on detection of a measurable FRET signal upon binding of a titration of test antibody to biotinylated human H202D GDF-15 variant, cynomolgus GDF-15 and mouse GDF-15. Europium cryptate (EuK) labelled Streptavidin and anti-human IgG XL665 (Cis Bio) were used as secondary detection reagents serving as energy donor and acceptor respectively. In the absence of test antibody binding, there is no detectable FRET fluorescence. When test antibody binds to GDF-15, the resulting physical proximity between the secondary reagent donor/acceptor pair results in FRET. FRET was measured ratiometrically [665 nm (acceptor)/620 nm (donor)] on an Envision plate reader, and data plotted using PRISM 6® software (Graphpad).

[1] = target: T3, biotinylated cynomolgus GDF-15; assay: as above
From the text: as §1

[2] = target: T4, mature recombinant cynomolgus GDF-15 …; assay: SPR Biacore 8K, 25 C, biotinylated GDF-15 on streptavidin C1 chip, Fab as analyte
Description: (§2) The experiments were carried out using mature recombinant human GDF-15, human GDF-15 H202D variant, mouse GDF-15, and cynomolgus GDF-15 with an N-terminal Flag and His tag. All species were chemically biotinylated using EZ link Sulfo-NHS-LC-Biotin (Thermo).
(§3) Streptavidin was covalently immobilized to a C1 chip surface using standard amine coupling techniques at a concentration of 4 μg/ml in 10 mM Sodium acetate pH 4.5. Recombinant biotinylated GDF-15 species were titrated onto the streptavidin chip surface in HBS-EP+ buffer to enable Fab binding.
(§4) Multiple buffer-only injections were made under the same conditions to allow for double reference subtraction of the final sensorgram sets, which were analyzed using Biacore 8K Evaluation Software. The chip surface was fully regenerated with pulses of 50 mM NaOH.

[3] = target: T5, mature recombinant human GDF-15 H202D …; assay: as above
Description: as §2, §3, §4

[4] = target: T6, mature recombinant mouse GDF-15 with …; assay: as above
Description: as §2, §3, §4

[5] = target: T7, mature recombinant human GDF-15 with an …; assay: as above
Description: as §2, §3, §4

[6] = target: T8, biotinylated human H202D GDF-15 variant; assay: HTRF binding assay, biotinylated antigen, titration of antibody
From the text: as §1

Row | IC50 (mature human GDF-15) [nM] | binding result (mouse GDF-15) | binding result [1] | Kd [2] [nM] | koff [2] [s⁻¹] | kon [2] [M⁻¹ s⁻¹] | Kd [3] [nM] | koff [3] [s⁻¹] | kon [3] [M⁻¹ s⁻¹] | Kd [4] [nM] | koff [4] [s⁻¹] | kon [4] [M⁻¹ s⁻¹] | Kd [5] [nM] | koff [5] [s⁻¹] | kon [5] [M⁻¹ s⁻¹] | binding result [6] | Binder
1 | 1.37 | binds | binds |  |  |  |  |  |  |  |  |  |  |  |  |  | AB1170074 (antibody, V domains shown) VH: EVQLQQSGRELVKPGASVKMSCKASGYTFTNYVMHWVKQKPGQGLEWIGYINPHNDGTEYSEKFKGKATLTSDKSSSTAYMELSSLTSEDSAVYYCARWYYDGGYFAYWGQGTLVTVSA VL: DIVMTQSPATLSVTPGDRVSLSCRASQSISDYLHWYQQKSHESPRLLIKYASQSISGIPSRFSGSGSGSDFTLSINSVEPEDVGVYYCQNGHSFPLTFGAGTKLELK
2 |  |  |  | 0.476 | 0.00279 | 5.87e+06 | 0.156 | 0.000696 | 4.45e+06 | 107 | 0.329 | 3.07e+06 | 0.159 | 0.000663 | 4.18e+06 |  | AB1170241 Fab (Fab, V domains shown, Fab of the humanized antibody, expressed as in Spooner et al. 2015) VH: QVQLVQSGSELKKPGASVKVSCKASGYTFTDYNMDWIRQSPGKGLEWIGDINPNQGGTFYNQKFKDRATLTVDKSTSTAYMELRSLRSDDTAVYYCAREEKLYFGLMDYWGQGTTVTVSS VL: DIQMTQSPSSLSASVGDRVTITCRASENIYSYLAWYQQKPGKAPKLLVYNAKTLAEGVPSRFSGSGSGIDFTLTISSLQPEDFATYYCQHQYGSPPTFGQGTKLEIK
3 |  |  |  | 0.273 | 0.00169 | 6.23e+06 | 0.09 | 0.000425 | 4.85e+06 | 75 | 0.281 | 3.9e+06 | 0.09 | 0.000422 | 4.74e+06 |  | AB1170243 Fab (Fab, V domains shown, Fab of the humanized antibody, expressed as in Spooner et al. 2015) VH: QVQLVQSGSELKKPGASVKVSCKASGYTFTDYNMDWIRQSPGKGLEWIGDINPNNGGTFYNQKFKDRATLTVDKSTSTAYMELRSLRSDDTAVYYCAREEKLYFGLMDYWGQGTTVTVSS VL: DIQMTQSPSSLSASVGDRVTITCRASENIYSYLAWYQQKPGKAPKLLVYNAKTLAEGVPSRFSGSGSGIDFTLTISSLQPEDFATYYCQHQYGSPPTFGQGTKLEIK
4 | 0.864 |  | binds |  |  |  |  |  |  |  |  |  |  |  |  | binds | AB1170019 (antibody, V domains shown) VH: EVQLQQSGPELVKPGASVKIPCKASGYTFTDYNMDWVKQSHGKSLEWIGDINPNNGGTFYNQKFKDKATLTVDKSSSTAYMELRSLTSEDTAVYYCAREEKLYFGLMDYWGQGTSVTVSS VL: DIQMTQSPASLSASVGETVTITCRASENIYSYLAWYQQKQGKSPQLLVYNAKTLAEGVPSRFSGSGSGIQFSLKINILQPEDFGNYYCQHQYGSPPTFGGGTKLEIK
